According to patent US20110263485A1 (University of California, published 2011):

B1: C37-linker-CD4M33C1F23 (designed binder)
chain: HTTWMEWDREINNYTSLIHSLIEESQNQQEKNEQELLSSSGGGGSGGGGSSSSCNLHFCQLRCKSLGLLGKCAGSFCACV

Key:
Experiment in all cases: cell-based or functional assay
[1] = target: HIV-1 ADA (R5) env (gp120 and gp41) (HIV-1 strain ADA)
[2] = target: HIV-1 ADA (R5) env (gp120 and gp41) (HIV-1 strain ADA); remark: listed apart in the source
[3] = target: HIV-1 HXB2 env (X4) (gp120 and gp41) (HIV-1 strain HXB2, UniProt P04578 33-856; P04578 33-856)
[4] = target: HIV-1 JRFL (R5) env (gp120 and gp41) (HIV-1 strain JRFL)

Binder	R5 fusion assay IC50 [1] [nM]	Inhibition of HIV single round pseudovirus in TZM-bl cells, ADA (R5), IC50 [2] [nM]	R5 fusion with competition IC50 [1] [nM]	R5 fusion with wash-out on ADA cells IC50 [1] [nM]	R5 fusion with wash-out on P5L cells IC50 [1] [nM]	X4 fusion assay IC50 [3] [nM]	Inhibition of HIV single round pseudovirus in TZM-bl cells, ADA (R5), IC90 [2] [nM]	Inhibition of HIV single round pseudovirus in TZM-bl cells, JRFL (R5), IC50 [4] [nM]	Inhibition of HIV single round pseudovirus in TZM-bl cells, JRFL (R5), IC90 [4] [nM]
Ac-HTTWMEWDREINNYTSLIHSLIEESQNLQEKNEQELL-NH2 [C37(Q652L) (N-acetylated, C-term amidated)]	28.2	114							
B1	6.83	2.33	7.78	77.8	561	2.3	17.3	2.25	24.3
